Experimental data as given in patent US20160031999A1 (CSL, published 2016).
Where a chain is given by its changes, count along the chain named. Several values for one entry are separate records, joined by “and”; a condition that tells them apart may be missing. Equal values may be shown once. Each block holds one binder with its values, some of them ahead of it.

Columns and labels:
[1] = molecular target: T1, polypeptide of SEQ ID NO: 87 (human IL-11Rα 23-215 and mouse IL-11Rα 216-367, 8×HIS tag) (human and mouse (chimera)); assay: Biacore, domain-swapped receptor; strong = KD of about 10 nM or lower
T1 chain: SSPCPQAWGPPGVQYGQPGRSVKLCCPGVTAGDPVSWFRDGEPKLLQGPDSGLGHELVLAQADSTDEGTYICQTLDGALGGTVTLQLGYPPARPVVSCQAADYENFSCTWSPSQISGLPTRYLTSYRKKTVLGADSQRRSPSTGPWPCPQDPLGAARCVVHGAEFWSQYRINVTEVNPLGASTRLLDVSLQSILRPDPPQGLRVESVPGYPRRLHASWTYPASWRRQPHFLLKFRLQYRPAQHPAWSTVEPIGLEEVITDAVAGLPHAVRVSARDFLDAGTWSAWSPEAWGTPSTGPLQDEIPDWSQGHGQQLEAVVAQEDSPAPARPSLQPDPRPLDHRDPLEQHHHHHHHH
Procedure: (§1) Various soluble forms of IL-11R comprising regions of hIL-11R and mIL-11R were produced and comprise sequences as set forth in SEQ ID NOs: 3 and 86-90 and the binding of antibodies 8E2, 8D10 and 8E4 to those polypeptides was determined using Western blotting or Biacore analysis.
(§2) For Biacore analysis, anti-human was IgG immobilized on the sensor surface at ˜10,000-12,000 RU and each antibody was captured at between 0.2 μg/ml and 0.5 μg/ml every cycle for 120 seconds. IL-11 receptors were injected over captured antibodies at varying concentrations, ranging from 1 μM down to 2.5 nM, including injections of buffer blanks. Association was monitored for 3-5 minutes, dissociation was monitored for 3-10 minutes. Approximate affinities were determined by fitting binding curves of each interaction to a 1:1 Kinetic Model.

[2] = molecular target: T2, polypeptide of SEQ ID NO: 88 (human IL-11Rα 23-318 and mouse IL-11Rα 319-367, 8×HIS tag) (human and mouse (chimera)); assay: as above
T2 chain: T1 chain with H215R, R225P, R226S, I252A, A284T
Procedure: as §1, §2

[3] = molecular target: T3, polypeptide of SEQ ID NO: 85 (amino acids 23 to 318 of human IL-11Rα, serine at position 248, 8×HIS tag) (human, UniProt Q14626 23-318); assay: Biacore, antibody captured on anti-human IgG Fc, receptor injected; N = 2, both values shown
T3 construct: also called WT D1/2; truncated hIL-11R
T3 sequence: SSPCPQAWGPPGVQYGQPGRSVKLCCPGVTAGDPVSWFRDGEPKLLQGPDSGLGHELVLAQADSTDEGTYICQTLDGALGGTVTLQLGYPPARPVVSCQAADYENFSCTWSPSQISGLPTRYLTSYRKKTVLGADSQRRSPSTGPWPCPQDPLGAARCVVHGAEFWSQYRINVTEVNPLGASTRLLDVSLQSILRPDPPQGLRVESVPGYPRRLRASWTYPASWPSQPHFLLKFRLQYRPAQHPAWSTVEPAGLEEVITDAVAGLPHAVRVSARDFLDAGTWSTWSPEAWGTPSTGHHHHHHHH
Procedure: (§3) Various point mutants of soluble forms of IL-11R were produced in which amino acids from mIL-11 were introduced into a soluble form of hIL-11 (SEQ ID NO: 85) (see Table 5 for positions of mutations relative to SEQ ID NO: 1 and for reference to the SEQ ID NO: of each polypeptide) and the binding of antibodies to those polypeptides or to polypeptides of SEQ ID NO: 3 or SEQ ID NO: 85 was determined using Biacore analysis or FACS.
(§4) Anti human IgG Fc specific antibody was chemically immobilized on a CM5 chip to ˜9000 RU. Antibodies were captured at about 0.3-1 μg/ml for 120 seconds on 2 spots in each flow cell. Adjacent spots consisting of only anti human IgG were used as a reference. IL-11 receptors were injected over the captured antibodies and reference spots at 40, 10, 5 and 2.5 nM in duplicate. Blank injections of buffer only were also performed in duplicate. Injection was performed for 3 minutes and dissociation monitored for a further 5 minutes.

[4] = molecular target: T4, V117E mutant of soluble human IL-11Rα (SEQ ID NO: 95) (human, UniProt Q14626 23-318); assay: Biacore, antibody captured on anti-human IgG Fc, receptor injected; mean ± SE, N = 4
T4 construct: also called V95E
T4 sequence: T3 sequence with V95E, S226C
Procedure: as §3, §4

[5] = molecular target: T5, mouse IL-11Rα on transfected cells (mouse, UniProt P70225 24-424); assay: binding to transfected cells
T5 construct: also called mIL-11Rα
T5 sequence: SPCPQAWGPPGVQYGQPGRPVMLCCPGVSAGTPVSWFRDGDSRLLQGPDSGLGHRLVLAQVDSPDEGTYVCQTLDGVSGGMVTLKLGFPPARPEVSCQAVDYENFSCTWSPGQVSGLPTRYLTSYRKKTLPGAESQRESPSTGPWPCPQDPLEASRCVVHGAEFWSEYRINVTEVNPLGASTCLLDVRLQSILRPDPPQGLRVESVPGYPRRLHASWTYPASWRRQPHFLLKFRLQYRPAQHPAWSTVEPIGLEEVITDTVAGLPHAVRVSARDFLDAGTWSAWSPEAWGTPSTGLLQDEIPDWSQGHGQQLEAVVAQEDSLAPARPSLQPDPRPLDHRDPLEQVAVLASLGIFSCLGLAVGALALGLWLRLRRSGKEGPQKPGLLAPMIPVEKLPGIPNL

binding result [1]: binds
binding result [2]: binds
Kd [3]: 3.2 nM and 3.7 nM
Kd [4]: 5.54 nM
B1: antibody 8E4 (antibody, human IgG4 S228P, lambda, V domains shown)
VH: EVQLLESGGGLVQPGGSLRLSCAASGFTFSWYFMGWVRQAPGKGLEWVSYIYPSGGSTGYADSVKGRFTISRDNSKNTLYLQMHSLRAEDTAVYYCARDEGYCSSTSCYFDAFDIWGQGTMVTVSS
VL: QSALTQPPSASGSPGQSVAISCTGTSSDVGGYNFVSWYQQHPGKAPKLLIYEVTKRPSGVPDRFSGSKAGNTASLTVSGLQAEDEADYYCSSYGGSNNAGVFGTGTKVTVLG

binding result [5]: no binding
binding result [1]: binds
binding result [2]: binds
Kd [3]: 0.57 nM and 0.69 nM
B2: antibody 8D10 (antibody, human IgG4 S228P, kappa, V domains shown)
VH: EVQLLESGGGLVQPGGSLRLSCAASGFTFSRYMMGWVRQAPGKGLEWVSSIVPSGGITIYADSVKGRFTISRDNSKNTLYLQMNSLRAEDTAVYYCARDHMGIVATDWGQGTLVTVSS
VL: DIQMTQSPSSLSASVGDRVTITCQASQDITNYLNWYLHKPGKAPKLLIYDASNLQTGVPSRFSGSGSGTDFTFTITSLQPEDFGTYYCQQYDTLHPSFGPGTTVDIKR
